Experimental data as given in PMC12579237, “Development of antibody drug conjugates targeting epithelial membrane protein 2-highly expressed lung cancer” (Cell Death & Disease, 2025).

T1: Purified EMP2 protein (human, UniProt P54851 1-167)
T1 chain: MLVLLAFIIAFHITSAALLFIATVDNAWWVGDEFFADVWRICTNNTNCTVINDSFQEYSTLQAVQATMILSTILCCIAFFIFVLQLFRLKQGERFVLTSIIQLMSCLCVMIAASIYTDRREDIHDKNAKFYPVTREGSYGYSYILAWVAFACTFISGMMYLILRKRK

T2: Peptide 4. KFYPVTREGS (129-138aa) (Homo sapiens)
T2 construct: human EMP2 residues 129-138; source: synthetic peptide (GenScript)
T2 chain: KFYPVTREGS


Key:
hEMP2-GFP [1] = biological target: T3, hEMP2-GFP (Homo sapiens, UniProt P54851)
T3 construct: epithelial membrane protein 2 (EMP2), human, fused to GFP; also called human EMP2-GFP; pCDH-EMP2-GFP; source: HEK293T, transfected, in lysate; A549, transfected, in cells; stably overexpressed (lentivirus) in A549, NCI-H520 and LLC cells

Purified EMP2 protein [2] = biological target: T1, Purified EMP2 protein; experiment: SPR
hEMP2-GFP [3] = biological target: T3, hEMP2-GFP; experiment: immunostaining of cells or tissue; immunofluorescence of A549 cells transfected with hEMP2-GFP, stained with FK002; colocalization quantified; conditions: one partner purified
[4] = biological target: T4, epithelial membrane protein 2 (EMP2), endogenous in NCI-H226 cells (Homo sapiens, UniProt P54851); experiment: affinity purification with mass spectrometry; FK002 antibody incubated with NCI-H226 whole-cell lysate; immunoprecipitate silver stained, qualitative mass spectrometry; conditions: one partner purified
T4 construct: epithelial membrane protein 2 (EMP2), human, endogenous in NCI-H226 lung squamous carcinoma cells; On live cells in the flow cytometry; in whole-cell lysate in the immunoprecipitation; also called human EMP2; source: endogenous, NCI-H226 whole-cell lysate; endogenous, on NCI-H226 cells

[5] = biological target: T2, Peptide 4. KFYPVTREGS (129-138aa); experiment: far-Western, overlay or dot blot; dot blot: 2.5 µL of each sample spotted on nitrocellulose (legend: 1 μg/spot), probed with FK002 antibody and HRP-conjugated mouse secondary antibody; conditions: both partners purified
Purified EMP2 protein [6] = biological target: T1, Purified EMP2 protein; experiment: SPR; Biacore 8K; EMP2 protein (approximately 12,000 RU) amine coupled; FK002Ab injected at 8 concentrations (0.02-1 μM), 20 μL/min, 100 s association, 180 s dissociation; PBS pH 7.2-7.4 with 1% dimethyl sulfoxide

Binder	EMP2 left on the cell surface, flow cytometry of EMP2-overexpressing NCI-H520 and NCI-A549 cells with or without FK002-exatecan (100 nM) for 48 h (hEMP2-GFP [1])	koff (Purified EMP2 protein [2])	binding result (hEMP2-GFP [3])	binding result [4]	binding result [5]	Kd (Purified EMP2 protein [6])
FK002-exatecan (antibody, V domains shown, exatecan conjugated by the T1000 (Mc-VA-PABC(PSAR1o)) linker to the fully reduced antibody; DAR approximately 8 per antibody; residues not stated | exatecan conjugated by the T1000 (Mc-VA-PABC(PSAR1o)) linker to the fully reduced antibody; DAR approximately 8 per antibody; residues not stated) VH: DVQLQESGPGLVKPSQSLSLTCSVTGYSITSGYYWNWIRQFPGNKLEWMGYIRYDGRNNYNPSLKNRISITRDTSKNQFFLKLNSVTTEDTATYYCARDFDYWGQGTTLTVSS VL: DIVLTQSPASLAVSLGQRATISCRASESVDTYGNSFMHWYQQKPGQPPKLLIYRASNLESGIPARFSGSGSRTDFTLTINPVEADDVATYYCHQSNEDPDTFGGGTKLEIKR	< 35%					
FK002 antibody (mouse mAb) (antibody, V domains shown, V region of the printed chimeric heavy chain; mouse IgG heavy constant region; V region of the printed chimeric light chain; mouse light constant region; Flow cytometry, immunofluorescence, immunoblot and dot blot used the mouse mAb (anti-mouse secondary antibodies); also called FK002Ab; FK002 mAb; source: hybridoma, mouse ascites (from Abmart)) VH: DVQLQESGPGLVKPSQSLSLTCSVTGYSITSGYYWNWIRQFPGNKLEWMGYIRYDGRNNYNPSLKNRISITRDTSKNQFFLKLNSVTTEDTATYYCARDFDYWGQGTTLTVSS VL: DIVLTQSPASLAVSLGQRATISCRASESVDTYGNSFMHWYQQKPGQPPKLLIYRASNLESGIPARFSGSGSRTDFTLTINPVEADDVATYYCHQSNEDPDTFGGGTKLEIK		0.00328 s⁻¹	binds	binds	binds	40.3 nM
